Residue numbers refer to the chain shown, from its start.
B1: 14L 72G 117I (protein, listed as Rattus norvegicus)
chain: AFDGTWKVDRNENLEKFMEKMGINVVKRKLGAHDNLKLTITQEGNKFTVKESSNFRNIDVVFELGVDFAYSGADGTELTGTWTMEGNKLVGKFKRVDNGKELIAVREISGNELIQTITYEGVEAKRIFKKE
modifications: PEPTIDE (1)...(131) wild-type rat intestinal fatty acid binding protein
B2: 21V, 72A (protein, listed as Rattus norvegicus)
chain: B1 chain with L14Y, M21V, G72A, I117Y
modifications: PEPTIDE (1)...(131) wild-type rat intestinal fatty acid binding protein
B3: 14L 72G (protein, listed as Rattus norvegicus)
chain: B1 chain with I117Y
modifications: PEPTIDE (1)...(131) wild-type rat intestinal fatty acid binding protein
B4: 11V, 72A (protein, listed as Rattus norvegicus)
chain: B1 chain with N11V, L14Y, G72A, I117Y
modifications: PEPTIDE (1)...(131) wild-type rat intestinal fatty acid binding protein
B5: 115H, 72A (protein, listed as Rattus norvegicus)
chain: B1 chain with L14Y, G72A, Q115H, I117Y
modifications: PEPTIDE (1)...(131) wild-type rat intestinal fatty acid binding protein
B6: 104F, 72A (protein, listed as Rattus norvegicus)
chain: B1 chain with L14Y, G72A, A104F, I117Y
modifications: PEPTIDE (1)...(131) wild-type rat intestinal fatty acid binding protein
B7: 78V, 72A (protein, listed as Rattus norvegicus)
chain: B1 chain with L14Y, G72A, L78V, I117Y
modifications: PEPTIDE (1)...(131) wild-type rat intestinal fatty acid binding protein
B8: 55Q, 72A (protein, listed as Rattus norvegicus)
chain: B1 chain with L14Y, F55Q, G72A, I117Y
modifications: PEPTIDE (1)...(131) wild-type rat intestinal fatty acid binding protein
B9: 104Y, 72A (protein, listed as Rattus norvegicus)
chain: B1 chain with L14Y, G72A, A104Y, I117Y
modifications: PEPTIDE (1)...(131) wild-type rat intestinal fatty acid binding protein
B10: 82V, 72A (protein, listed as Rattus norvegicus)
chain: B1 chain with L14Y, G72A, W82V, I117Y
modifications: PEPTIDE (1)...(131) wild-type rat intestinal fatty acid binding protein
B11: 104G, 72A (protein, listed as Rattus norvegicus)
chain: B1 chain with L14Y, G72A, A104G, I117Y
modifications: PEPTIDE (1)...(131) wild-type rat intestinal fatty acid binding protein
B12: 82F, 72A (protein, listed as Rattus norvegicus)
chain: B1 chain with L14Y, G72A, W82F, I117Y
modifications: PEPTIDE (1)...(131) wild-type rat intestinal fatty acid binding protein
B13: 106M, 72A (protein, listed as Rattus norvegicus)
chain: B1 chain with L14Y, G72A, R106M, I117Y
modifications: PEPTIDE (1)...(131) wild-type rat intestinal fatty acid binding protein
B14: 11M, 72A (protein, listed as Rattus norvegicus)
chain: B1 chain with N11M, L14Y, G72A, I117Y
modifications: PEPTIDE (1)...(131) wild-type rat intestinal fatty acid binding protein
B15: 49D, 72A (protein, listed as Rattus norvegicus)
chain: B1 chain with L14Y, V49D, G72A, I117Y
modifications: PEPTIDE (1)...(131) wild-type rat intestinal fatty acid binding protein
B16: 78I, 72A (protein, listed as Rattus norvegicus)
chain: B1 chain with L14Y, G72A, L78I, I117Y
modifications: PEPTIDE (1)...(131) wild-type rat intestinal fatty acid binding protein
B17: 55I, 72A (protein, listed as Rattus norvegicus)
chain: B1 chain with L14Y, F55I, G72A, I117Y
modifications: PEPTIDE (1)...(131) wild-type rat intestinal fatty acid binding protein
B18: 38I 72G (protein, listed as Rattus norvegicus)
chain: B1 chain with L14Y, L38I, I117Y
modifications: PEPTIDE (1)...(131) wild-type rat intestinal fatty acid binding protein
B19: 78Y, 72A (protein, listed as Rattus norvegicus)
chain: B1 chain with L14Y, G72A, L78Y, I117Y
modifications: PEPTIDE (1)...(131) wild-type rat intestinal fatty acid binding protein
B20: 115N, 72A (protein, listed as Rattus norvegicus)
chain: B1 chain with L14Y, G72A, Q115N, I117Y
modifications: PEPTIDE (1)...(131) wild-type rat intestinal fatty acid binding protein
B21: 21I, 72A (protein, listed as Rattus norvegicus)
chain: B1 chain with L14Y, M21I, G72A, I117Y
modifications: PEPTIDE (1)...(131) wild-type rat intestinal fatty acid binding protein
B22: 11W, 72A (protein, listed as Rattus norvegicus)
chain: B1 chain with N11W, L14Y, G72A, I117Y
modifications: PEPTIDE (1)...(131) wild-type rat intestinal fatty acid binding protein
B23: 78A, 72A (protein, listed as Rattus norvegicus)
chain: B1 chain with L14Y, G72A, L78A, I117Y
modifications: PEPTIDE (1)...(131) wild-type rat intestinal fatty acid binding protein

assay: Probe fluorescence ratio response to oleic acid relative to ADIFAB2; format: binding; details: response relative to ADIFAB2
Method in brief: (§1)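 Fluorescently labeled rat intestinal FABP variants were read at two emission wavelengths, near the unbound maximum (about 420 to 480 nm) and the FFA-bound maximum (about 495 to 580 nm). R = Fλ1/Fλ2 after subtracting probe-free intensity; ΔR = R+agent − R0, normalized to ADIFAB2 (rI-FABP-L72A).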

| Molecule | DR/DR OA |
| --- | --- |
| B1 | 0.395 |
| B2 | 0.739 |
| B3 | 0.730 |
| B4 | 0.552 |
| B5 | 0.675 |
| B6 | 0.462 |
| B7 | 0.864 |
| B8 | 0.536 |
| B9 | 0.236 |
| B10 | 0.461 |
| B11 | 0.691 |
| B12 | 0.403 |
| B13 | 0.510 |
| B14 | 0.463 |
| B15 | 0.316 |
| B16 | 0.923 |
| B17 | 0.901 |
| B18 | 0.861 |
| B19 | 0.845 |
| B20 | 0.711 |
| B21 | 0.310 |
| B22 | 0.227 |
| B23 | 0.350 |

assay: Probe fluorescence ratio response to linolenic acid relative to ADIFAB2; format: binding; details: response relative to ADIFAB2
Method in brief: as §1

| Molecule | DR/DR LNA |
| --- | --- |
| B1 | 0.812 |
| B2 | 0.889 |
| B3 | 0.886 |
| B4 | 0.763 |
| B5 | 0.697 |
| B6 | 0.436 |
| B7 | 0.798 |
| B8 | 0.492 |
| B9 | 0.278 |
| B10 | 0.456 |
| B11 | 0.687 |
| B12 | 0.334 |
| B13 | 0.490 |
| B14 | 0.651 |
| B15 | 0.296 |
| B16 | 0.958 |
| B17 | 0.885 |
| B18 | 0.701 |
| B19 | 0.871 |
| B20 | 0.726 |
| B21 | 0.412 |
| B22 | 0.357 |
| B23 | 0.429 |

assay: Probe fluorescence ratio response to palmitic acid relative to ADIFAB2; format: binding; details: response relative to ADIFAB2
Method in brief: as §1

| Molecule | DR/DR PA |
| --- | --- |
| B1 | 0.231 |
| B2 | 0.462 |
| B3 | 0.334 |
| B4 | 0.732 |
| B5 | 0.514 |
| B6 | 0.263 |
| B7 | 0.615 |
| B8 | 0.428 |
| B9 | 0.140 |
| B10 | 0.345 |
| B11 | 0.650 |
| B12 | 0.223 |
| B13 | 0.183 |
| B14 | 0.543 |
| B15 | 0.161 |
| B16 | 0.748 |
| B17 | 0.774 |
| B18 | 0.419 |
| B19 | 0.520 |
| B20 | 0.558 |
| B21 | 0.162 |
| B22 | 0.199 |
| B23 | 0.190 |

assay: Probe fluorescence ratio response to arachidonic acid relative to ADIFAB2; format: binding; details: arachidonic acid; response relative to ADIFAB2
Method in brief: as §1

| Molecule | DR/DR AA |
| --- | --- |
| B1 | 0.787 |
| B2 | 0.939 |
| B3 | 0.873 |
| B4 | 0.932 |
| B5 | 0.891 |
| B6 | 0.686 |
| B7 | 1.093 |
| B8 | 0.600 |
| B9 | 0.364 |
| B10 | 0.757 |
| B11 | 0.866 |
| B12 | 1.029 |
| B13 | 0.554 |
| B14 | 0.697 |
| B15 | 0.308 |
| B16 | 1.138 |
| B17 | 1.079 |
| B18 | 0.964 |
| B19 | 1.172 |
| B20 | 0.918 |
| B21 | 0.531 |
| B22 | 0.430 |
| B23 | 0.433 |

assay: Probe fluorescence ratio response to linoleic acid relative to ADIFAB2; format: binding; details: response relative to ADIFAB2
Method in brief: as §1

| Molecule | DR/DR LA |
| --- | --- |
| B1 | 0.764 |
| B2 | 0.871 |
| B3 | 0.817 |
| B4 | 0.825 |
| B5 | 0.741 |
| B6 | 0.486 |
| B7 | 0.865 |
| B8 | 0.474 |
| B9 | 0.265 |
| B10 | 0.519 |
| B11 | 0.665 |
| B12 | 0.422 |
| B13 | 0.485 |
| B14 | 0.576 |
| B15 | 0.324 |
| B16 | 0.874 |
| B17 | 0.834 |
| B18 | 0.772 |
| B19 | 0.908 |
| B20 | 0.777 |
| B21 | 0.365 |
| B22 | 0.344 |
| B23 | 0.372 |

Source: patent US20060257938A1, “Method of screening for drugs that block ligand binding to a lipid binding protein” (priority 2005, published 2006)
